Data as given in patent US20150315272A1 (published 2015).

T1: IL-17E (UniProt Q9H293 33-177)
T1 sequence (looked up): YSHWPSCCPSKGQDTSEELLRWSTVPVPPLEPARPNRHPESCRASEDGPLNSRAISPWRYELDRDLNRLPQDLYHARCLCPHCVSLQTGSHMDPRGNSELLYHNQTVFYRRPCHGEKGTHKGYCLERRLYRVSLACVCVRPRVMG

T2: IL-17C (UniProt Q9P0M4 19-197)
T2 sequence (looked up): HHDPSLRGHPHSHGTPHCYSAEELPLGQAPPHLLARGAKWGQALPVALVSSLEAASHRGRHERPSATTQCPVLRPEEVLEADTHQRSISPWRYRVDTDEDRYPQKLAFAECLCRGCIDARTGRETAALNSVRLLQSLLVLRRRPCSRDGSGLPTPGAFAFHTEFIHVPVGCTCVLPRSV

T3: IL-17D (UniProt Q8TAD2 18-202, limits assumed)
T3 sequence (looked up): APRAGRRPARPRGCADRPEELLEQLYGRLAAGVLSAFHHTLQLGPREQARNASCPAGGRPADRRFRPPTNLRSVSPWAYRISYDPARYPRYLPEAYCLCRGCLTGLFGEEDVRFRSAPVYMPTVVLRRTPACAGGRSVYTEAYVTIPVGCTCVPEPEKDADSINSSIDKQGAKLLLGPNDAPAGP

T4: IL-17B (UniProt Q9UHF5 21-180)
T4 sequence (looked up): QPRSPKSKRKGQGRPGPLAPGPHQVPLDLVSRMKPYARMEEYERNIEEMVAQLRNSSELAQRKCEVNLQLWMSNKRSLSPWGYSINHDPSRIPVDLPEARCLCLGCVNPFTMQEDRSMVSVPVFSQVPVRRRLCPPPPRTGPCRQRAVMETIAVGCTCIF

B1: Antibody CA028-0496 (murine IgG1 constant regions) (antibody, V domains shown)
VH: EVQLVESGGGLVQPGGSLRLSCAASGFTFSDYNMAWVRQAPGKGLEWVATITYEGRNTYYRDSVKGRFTISRDNAKNSLYLQMNSLRAEDTAVYYCASPPQYYEGSIYRLWFAHWGQGTLVTVSS
VL: AIQLTQSPSSLSASVGDRVTITCRADESVTTLMHWYQQKPGKAPKLLIYLVSNRESGVPSRFSGSGSGTDFTLTISSLQPEDFATYYCQQTWSDPWTFGQGTKVEIKR
notes: captured by anti-mouse IgG Fc
B2: Antibody CA028-0496 (human IgG4 constant regions) (antibody, V domains shown)
VH: B1 VH
VL: B1 VL
notes: human gamma-4 constant region with hinge mutation S241P and human C-kappa (Km3), made in CHO cells; also called CA028496

Assays:
[1] = biological target: T5, Recombinant IL-17A/F heterodimer (IL-17A and IL-17F linked by a GS linker) (human); assay: Biacore 3000 SPR, 25 C, antibody captured by anti-mouse IgG Fc, cytokine titrated from 25 nM
T5 construct: also called heterodimer A/F; human recombinant IL-17A/F heterodimer
Description: All experiments were performed at 25° C. Affinipure F(ab′)₂ fragment goat anti-mouse IgG, Fc fragment specific (Jackson ImmunoResearch) was immobilised on a CMS Sensor Chip (Biacore AB) via amine coupling chemistry to a capture level of ≈6000 response units (RUs). HBS-EP buffer (10 mM HEPES pH 7.4, 0.15 M NaCl, 3 mM EDTA, 0.005% Surfactant P20, Biacore AB) was used as the running buffer with a flow rate of 10 μL/min. […] The surface was regenerated at a flowrate of 10 uL/min by a 10 μL injection of 40 mM HCl, followed by a 5 μL injection of 5 mM NaOH.
Double referenced background subtracted binding curves were analysed using the BIAevaluation software (version 3.2) following standard procedures. Kinetic parameters were determined from the fitting algorithm.

IL-17E = biological target: T1, IL-17E; assay: Biacore 3000 SPR, antibody captured by anti-human IgG Fc
Description: (§1) All experiments were performed at 25° C. Affinipure Fc Fragment goat anti-human IgG, Fc fragment specific (Jackson ImmunoResearch) was immobilised on a CMS Sensor Chip via amine coupling chemistry to a capture level of ≈6000 response units (RUs). HBS-EP buffer (10 mM HEPES pH 7.4, 0.15 M NaCl, 3 mM EDTA, 0.005% Surfactant P20, Biacore AB) was used as the running buffer with a flow rate of 10 μl/min. […] The surface was regenerated by a 30 μL injections of 40 mM HCl, followed by one 5 μL injection of 5 mM NaOH.
(§2) Background subtraction binding curves were double referenced and analysed using the BIAevaluation software (version 3.2) following standard procedures. Kinetic parameters were determined from the fitting algorithm.

IL-17C = biological target: T2, IL-17C; assay: as above
Description: as §1, §2

IL-17D = biological target: T3, IL-17D; assay: as above
Description: as §1, §2

IL-17B = biological target: T4, IL-17B; assay: as above
Description: as §1, §2

T5 sequence (chain, as listed by the source limits assumed): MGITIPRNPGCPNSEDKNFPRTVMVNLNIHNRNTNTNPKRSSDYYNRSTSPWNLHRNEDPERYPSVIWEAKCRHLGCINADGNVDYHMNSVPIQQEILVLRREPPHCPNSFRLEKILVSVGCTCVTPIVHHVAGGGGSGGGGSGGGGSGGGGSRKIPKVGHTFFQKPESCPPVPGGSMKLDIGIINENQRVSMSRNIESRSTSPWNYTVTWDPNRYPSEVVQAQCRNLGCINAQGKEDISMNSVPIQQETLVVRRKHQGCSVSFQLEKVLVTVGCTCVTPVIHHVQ

Binder | Kd [1] [pM] | binding result (IL-17E) | binding result (IL-17C) | binding result (IL-17D) | binding result (IL-17B)
B1 | 116 |  |  |  | 
B2 |  | no binding | no binding | no binding | no binding
